The text below walks through data of patent publication US11814439.

For test [1], the target named is C1q Receptor in the complement system (rabbit serum as the source of complement) (rabbit). The test can be described thus: cell-based or functional assay.
For test [2], the target named is FcγIIIA Receptor on the effector cells (CD16 / FcγRIII) (human) (UniProt P08637). The experiment in a line: cell-based or functional assay.
In test [3] the target is CD20 on Jeko-1, Raji and Daudi cells (human) (UniProt P11836). The test can be described thus: FACS on Raji cells, PE anti-human secondary antibody.
CD20 on Jeko-1, Raji and Daudi cells (human), sequence (P11836 whole entry): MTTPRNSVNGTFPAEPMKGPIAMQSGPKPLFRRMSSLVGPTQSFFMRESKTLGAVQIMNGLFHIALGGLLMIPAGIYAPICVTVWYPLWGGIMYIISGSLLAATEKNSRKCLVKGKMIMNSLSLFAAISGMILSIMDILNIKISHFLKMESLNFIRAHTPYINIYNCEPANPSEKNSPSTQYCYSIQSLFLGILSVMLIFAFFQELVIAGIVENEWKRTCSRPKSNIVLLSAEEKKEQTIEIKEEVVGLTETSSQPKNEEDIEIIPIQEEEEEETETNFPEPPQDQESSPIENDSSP
For test [4] the target is unchanged. The experiment in a line: FACS on Daudi cells, PE anti-human secondary antibody.

The EC50 is the concentration at which the effect is half-maximal. A high value points to a less potent agent.

FcγIIIA Receptor on the effector cells (CD16 / FcγRIII) (human), sequence (P08637 17-254): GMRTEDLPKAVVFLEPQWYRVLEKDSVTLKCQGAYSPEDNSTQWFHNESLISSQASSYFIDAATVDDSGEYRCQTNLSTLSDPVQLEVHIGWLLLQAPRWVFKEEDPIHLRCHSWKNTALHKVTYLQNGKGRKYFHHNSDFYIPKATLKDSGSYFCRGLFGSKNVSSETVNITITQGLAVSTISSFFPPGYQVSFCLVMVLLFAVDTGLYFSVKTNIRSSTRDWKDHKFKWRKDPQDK

In turn, ARZERRA (ofatumumab) (antibody) came in with a CDC EC50 (Jeko-1 cells, rabbit complement) in test [1] of 0.353 µg/mL. For the same substance, the EC50 of ADCC assay Using Primary NK Cells in test [2] is 500 µg/mL. Also, the EC50 was 0.00873 ng/mL in test [3] and 0.000793 ng/mL in test [4].

On to GAZYVA (obinutuzumab) (antibody), for which the EC50 of ADCC assay Using Primary NK Cells in test [2] was found to be 19 µg/mL.

With OCREVUS (ocrelizumab) (antibody), the CDC EC50 (Jeko-1 cells, rabbit complement) in test [1] was determined as 1.21 µg/mL.

Regarding RITUXAN (rituximab) (antibody), the CDC EC50 (Jeko-1 cells, rabbit complement) in test [1] is 0.245 µg/mL. In test [2], this substance yielded an EC50 of ADCC assay Using Primary NK Cells of 1390 µg/mL.
